Source: patent US20070104732A1 (published 2007)

Key:
Test in all cases: cell-based or functional assay
[1] = target: cellular proteins integrins
[2] = target: EGFR-Ecoil pseudoreceptor (UniProt P00533)
[3] = target: EGFR-Ecoil pseudoreceptor (UniProt P00533 646-1210)

Modified fiber FK4mm-RGD of AdFK4mmRGD/GFP (S->E at aa 408, P->A at aa 409, RGD motif in the HI-loop, K4 K-coil at the C-terminus) (from UniProt P11818 1-581)
transduction efficiency of AdFK4mmRGD/GFP in HeLa-rtTA and A549-tTA cells relative to AdFK4m/GFP (GFP expression, flow cytometry) [1]: 3 to 6 fold
transduction of 293E cells by AdFK4mmRGD/GFP relative to AdFK4m/GFP (GFP expression, flow cytometry) [1]: 2 to 3 times

K-coil soluble peptide
inhibition of AdFK4m/GFP mediated GFP gene transfer in 293E cells after pre-incubation with 2 ug K-coil soluble peptide, MOI 0.05 [2]: 80%

B1: Chimeric adenoviral fiber FK4m of AdFK4m/GFP (S->E at aa 408, K4 K-coil at the C-terminus) (other)
chain (part 1 of 2): MKRARPSEDTFNPVYPYDTETGPPTVPFLTPPFVSPNGFQESPPGVLSLRLSEPLVTSNGMLALKMGNGLSLDEAGNLTSQNVTTVSPPLKKTKSNINLEISAPLTVTSEALTVAAAAPLMVAGNTLTMQSQAPLTVHDSKLSIATQGPLTVSEGKLALQTSGPLTTTDSSTLTITASPPLTTATGSLGIDLKEPIYTQNGKLGLKYGAPLHVTDDLNTLTVATGPGVTINNTSLQTKVTGALGFDSQGNMQLNVAGGLRIDSQNRRLILDVSYPFDAQNQLNLRLGQGPLFINSAHNLDINYNKGLYLFTASNNSKKLEVNLSTAKGLMFDATAIAINAGDGLEFGSPNAPNTNPLKTKIGHGLEFDSNKAMVPKLGTGLSFDSTGAITVGNKNNDKLTLWTTPAPEPNCRLNAEKDAKLTLVLTKCGSQILATVSVLAVKGSLAPISGTVQSAHLIIRFDENGVLLNNSFLDPEYWNFRNGDLTEGTAYTNAVGFMPNLSAYPKSHGKTAKSNIVSQVYLNGDKTKPVTLTITLNGTQETGDTTPSAYSMSFSWDWSGHNYINEIFATSSYTFSYIAQE
chain (part 2 of 2): KVSALKEKVSALKEKVSALKEKVSALKE
transduction efficiency (GFP expression, flow cytometry) of AdFK4m/GFP in 293E cells compared with 293 cells, MOI 0.01 [3]: 7 fold
transduction efficiency (GFP expression, flow cytometry) of AdFK4m/GFP in 293E cells compared with 293 cells, MOI 0.05 [3]: 24 fold
transduction efficiency (GFP expression, flow cytometry) of AdFK4m/GFP in 293E cells compared with 293 cells, MOI 0.5 [3]: 11 fold
transduction efficiency (GFP expression, flow cytometry) of AdFK4m/GFP in 293E cells compared with 293 cells, MOI 0.8 [3]: 8 fold
